Results on 1 substance are retold here after PMC8991256.

What is called stoichiometry N is a count of units in the complex or per binding partner.

The assay addresses LH1–RC core complex, monomeric component of the native dimer (Rhodobacter sphaeroides f. sp. denitrificans strain IL106 (endogenous)) (UniProt Q3J1A4). Put plainly: cryo-EM structure; native dimeric LH1–RC from Rba. sphaeroides IL106 in DDM, ~5 mg/ml; C1 symmetry, 2.75 Å.

Turning to “LH1–RC core complex, monomeric component of the native dimer (from UniProt Q3J1A4 1-58; Q3J1A3 1-49; P0C0Y8 1-282; P0C0Y9 1-308; P0C0Y7 1-260; P13402 1-82)”, the stoichiometry N stood at 2.
